{
  "source": "patent US12064469B2",
  "about": "“Stable peptide compositions” (TearSolutions, Inc., priority 2017, dated 2024)",
  "assay": "Comparative Lacripep stability in PBS vs citrate buffer at 60° C. by MALDI TOF mass spectrometry",
  "type": "physicochemical",
  "conditions": "2 weeks",
  "experimental": "FIGS. 1A and 1B illustrate the stability of Lacripep™ (SEQ ID NO: 1) (0.001%) in phosphate buffered saline (PBS), pH 4.5 and 7.0. The Lacripep™ solutions were analyzed by MALDI TOF mass spectrometry at time 0 (FIG. 1A) and after two weeks (FIG. 1B) at 60° C.\nThe Lacripep™ solutions were analyzed by MALDI TOF mass spectrometry at time 0 (FIG. 2A) and after two weeks (FIG. 2B) at 60° C.\nLacripep™ (SEQ ID NO. 1) stability was assessed in PBS at pH 4.5 and 7.0 (FIG. 1) and citrate buffer at pH 6.0 and 6.5 (FIG. 2). The initial concentration of Lacripep™ was 0.001%, and each trial was run at 60° C. The stability was assessed using MALDI TOF mass spectrometry at the initiation of the experiment (week 0, FIGS. 1A and 2A) and after two weeks (week 2, FIGS. 1B and 2B).",
  "note": "“Also recorded” adds a separate entry of the source.",
  "data": [
    {"substance": "Ac-Lys-Gln-Phe-Ile-Glu-Asn-Gly-Ser-Glu-Phe-Ala-Gln-Lys-Leu-Leu-Lys-Lys-Phe-Ser-NH2 (Ac-KQFIENGSEFAQKLLKKFS-NH2; listed as Homo sapiens) [Lacripep™]", "values": [
      {"measurement": "stability (Lacripep peak, MALDI TOF)", "setting": "PBS pH 4.5, 0.001% Lacripep", "result": "significant degradation; also recorded: a degradation product becomes apparent; also recorded: An additional degradation product is seen"},
      {"measurement": "stability (Lacripep peak, MALDI TOF)", "setting": "PBS pH 7.0, 0.001% Lacripep", "result": "significant degradation; also recorded: a degradation product becomes apparent"},
      {"measurement": "stability (Lacripep peak, MALDI TOF)", "setting": "citrate buffer pH 6.0, 0.001% Lacripep", "result": "no change in the intensity of the Lacripep™ peak"},
      {"measurement": "stability (Lacripep peak, MALDI TOF)", "setting": "citrate buffer pH 6.5, 0.001% Lacripep", "result": "no change in the intensity of the Lacripep™ peak"}
    ]}
  ]
}
